# According to the supplement of paper PMC10724198:
# ± gives the standard deviation of the averaged measurements.
# System: Saccharomyces cerevisiae
# Assay: protein stability index of tFT-peptide fusion (C-terminal peptide) (PSI (0-1 scale)); higher = more stable (slower turnover)
# Settings: temperature: 30 C
# Protocol: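 MPS profiling in S. cerevisiae of the yeast C-terminome library: the last 12 aa of each annotated ORF are fused to the C-terminus of a sfGFP-mCherry timer, after a GGGS linker. Cells are FACS-sorted into 8 mCherry/sfGFP bins and deep-sequenced. PSI runs from 0 (unstable) to 1 (stable); wild type and das1Δ backgrounds, two technical replicates each.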
# [1] = genetic background: das1 deletion
Sequence,protein stability index [1],protein stability index (genetic background: wild type)
PTYDNNRHYGND [YFL032W C-terminal 12 aa],0.671 ± 0.0083,0.702 ± 0.018
TFTLAVTPYPAF [YLL066W-B C-terminal 12 aa],0.715 ± 0.013,0.6847 ± 0.0036
GQIVIVHYLYDR [YOR218C C-terminal 12 aa],0.422 ± 0.018,0.445 ± 0.051
KMPLVPTHYYKQ [GCV1 C-terminal 12 aa],0.706 ± 0.0089,0.6559 ± 0.00066
GGNSSKKGKKKR [RQC2 C-terminal 12 aa],0.6835 ± 0.00078,0.724 ± 0.022
LGLSLRRGTEIW [MRP8 C-terminal 12 aa],0.72702 ± 0.00035,0.72218 ± 0.00069
IRLKRRDFMKNL [RRT12 C-terminal 12 aa],0.689 ± 0.0069,0.382 ± 0.0049
IMSTASAQFVGN [YIR018C-A C-terminal 12 aa],0.687 ± 0.011,0.664 ± 0.0089
PELSSTVSHNRA [WSC3 C-terminal 12 aa],0.693 ± 0.035,0.783 ± 0.07
GVYMELVKVLFG [YLR177W C-terminal 12 aa],0.607 ± 0.015,0.631 ± 0.013
RLDRHFEKKKKV [RDS3 C-terminal 12 aa],0.704 ± 0.023,0.7 ± 0.021
LMQLLLGSLGLS [YKL145W-A C-terminal 12 aa],0.706 ± 0.0093,0.716 ± 0.031
QLSRNEESLMKK [COS5 C-terminal 12 aa],0.7 ± 0.015,0.752 ± 0.059
RVPQSRSFGNLR [NUM1 C-terminal 12 aa],0.738 ± 0.012,0.746 ± 0.038
AKWSISHKSNTG [YIL066W-A C-terminal 12 aa],0.694 ± 0.0059,0.69 ± 0.037
KGRALENLPDES [SSM4 C-terminal 12 aa],0.675 ± 0.016,0.692 ± 0.032
TPSSVQSSPKRA [ZRG8 C-terminal 12 aa],0.696 ± 0.017,0.668 ± 0.0075
WDKQKALERRSV [CNS1 C-terminal 12 aa],0.723 ± 0.015,0.705 ± 0.024
RELFGVGTPQKL [TEA1 C-terminal 12 aa],0.7173 ± 0.0037,0.728 ± 0.023
KKKNKNKGKKKR [SRP21 C-terminal 12 aa],0.6857 ± 0.006,0.719 ± 0.048
PDEISFLQQFTS [KAP104 C-terminal 12 aa],0.721 ± 0.0076,0.676 ± 0.023

Sequence,protein stability index [1],protein stability index (genetic background: wild type)
SKKDYSIDSVEM [TPO2 C-terminal 12 aa],0.698 ± 0.0055,0.677 ± 0.014
DIEVDHTKSTDP [DPB3 C-terminal 12 aa],0.6917 ± 0.0038,0.676 ± 0.018
CCGSVLLWCLVV [YLR437C-A C-terminal 12 aa],0.4309 ± 0.0019,0.27 ± 0.0046
REWASNTVKKEK [EMC5 C-terminal 12 aa],0.698 ± 0.013,0.692 ± 0.024
LGSNCVFLAIFR [YPL222C-A C-terminal 12 aa],0.674 ± 0.032,0.648 ± 0.02
FTAVLGTYLLTL [SDH3 C-terminal 12 aa],0.6494 ± 0.005,0.645 ± 0.0016
LFDARFERKNPH [SRB8 C-terminal 12 aa],0.737 ± 0.025,0.7112 ± 0.0032
WSPLHAAKRHRI [MRPL51 C-terminal 12 aa],0.692 ± 0.014,0.695 ± 0.02
ELFTIISRIIED [TSL1 C-terminal 12 aa],0.702 ± 0.016,0.711 ± 0.046
LLYHMDLLLKVK [VID28 C-terminal 12 aa],0.299 ± 0.026,0.365 ± 0.015
CWMLWLQDRPVC [YBL112C C-terminal 12 aa],0.627 ± 0.017,0.625 ± 0.02
HQKTKTLASLSI [NUP49 C-terminal 12 aa],0.707 ± 0.014,0.631 ± 0.0093
IIQDNISPRLVV [RRP46 C-terminal 12 aa],0.661 ± 0.034,0.665 ± 0.017
SEYRRKQQEKKD [YPI1 C-terminal 12 aa],0.722 ± 0.019,0.688 ± 0.023
IEAATQAFLDSQ [WIP1 C-terminal 12 aa],0.698 ± 0.013,0.715 ± 0.051
SSVRTLDSNIWR [ISC10 C-terminal 12 aa],0.7128 ± 0.0013,0.686 ± 0.024
LYDNIRSGNFGI [MSB1 C-terminal 12 aa],0.771 ± 0.008,0.6503 ± 0.00092
FGIKKNDLKKSN [GSF2 C-terminal 12 aa],0.708 ± 0.014,0.705 ± 0.023
GNINDDDDGFFD [PLP2 C-terminal 12 aa],0.724 ± 0.021,0.698 ± 0.019
EVDDDGEIDGLF [ADE3 C-terminal 12 aa],0.7153 ± 0.0044,0.692 ± 0.021
DFFREVKYGKKQ [ODC1 C-terminal 12 aa],0.7097 ± 0.0027,0.72329 ± 0.00028

Sequence,protein stability index [1],protein stability index (genetic background: wild type)
LTARKVNALRHR [KNH1 C-terminal 12 aa],0.694 ± 0.028,0.694 ± 0.048
KPLYYRIYRFFC [MMP1 C-terminal 12 aa],0.764 ± 0.013,0.537 ± 0.0091
EFLQIMKARISK [SEC24 C-terminal 12 aa],0.686 ± 0.011,0.716 ± 0.048
NGHVSKKAKVTK [LYS21 C-terminal 12 aa],0.6885 ± 0.0043,0.667 ± 0.021
RLGASNSSNNDA [SLY1 C-terminal 12 aa],0.702 ± 0.022,0.68 ± 0.018
ERNPTQRPQRRY [RPS10A C-terminal 12 aa],0.728 ± 0.036,0.679 ± 0.036
SKVNSTRLVSRK [KAR3 C-terminal 12 aa],0.6908 ± 0.0058,0.723 ± 0.014
LEKVLNQIGLKN [YNL011C C-terminal 12 aa],0.6874 ± 0.0064,0.6425 ± 0.0062
VFSKKEPFPHSK [YJR084W C-terminal 12 aa],0.721 ± 0.019,0.771 ± 0.059
ICFREFFDRVET [YJL077W-B C-terminal 12 aa],0.714 ± 0.056,0.6732 ± 0.0058
DGLLKNVWSYSR [RPS21A C-terminal 12 aa],0.7161 ± 0.0069,0.7137 ± 0.0025
DIPRSNVYGSLI [SCY1 C-terminal 12 aa],0.7131 ± 0.0063,0.672 ± 0.044
IVNIKILRRNSR [LDB16 C-terminal 12 aa],0.796 ± 0.014,0.7813 ± 0.003
FLIHTPKHPPPT [POG1 C-terminal 12 aa],0.698 ± 0.011,0.725 ± 0.021
LTLNWGVEIVKK [RDI1 C-terminal 12 aa],0.73 ± 0.03,0.725 ± 0.017
ERWVRMGELMHY [YBR184W C-terminal 12 aa],0.686 ± 0.018,0.538 ± 0.058
MFKCARQSEFDK [MTG2 C-terminal 12 aa],0.6881 ± 0.0066,0.6829 ± 0.0037
LLLTILLFYPPY [YBL109W C-terminal 12 aa],0.296 ± 0.011,0.318 ± 0.022
KINYDAIDGLFR [BRF1 C-terminal 12 aa],0.71 ± 0.013,0.681 ± 0.014
RARLIRKKKTIN [YER085C C-terminal 12 aa],0.751 ± 0.022,0.202 ± 0.022
KVETVLNKMFEK [REC114 C-terminal 12 aa],0.701 ± 0.015,0.687 ± 0.022

Sequence,protein stability index [1],protein stability index (genetic background: wild type)
CAVDAIFYWLLM [GMC1 C-terminal 12 aa],0.652 ± 0.026,0.486 ± 0.026
KIEVSSQESWGN [HSP26 C-terminal 12 aa],0.68 ± 0.0024,0.693 ± 0.037
AIWKHGIVEEKI [TMA19 C-terminal 12 aa],0.695 ± 0.014,0.694 ± 0.026
GEEKKHLKMASP [MDE1 C-terminal 12 aa],0.6905 ± 0.0062,0.704 ± 0.035
IKLLKTHNRMSL [YNL277W-A C-terminal 12 aa],0.6846 ± 0.0031,0.696 ± 0.036
EDADNDNDYDHE [SAP155 C-terminal 12 aa],0.677 ± 0.035,0.682 ± 0.0061
ISKKYYSRYDKK [OM14 C-terminal 12 aa],0.683 ± 0.037,0.616 ± 0.025
FRSTRSNTPNYT [HDA2 C-terminal 12 aa],0.728 ± 0.018,0.737 ± 0.046
DATLYLGRFLPH [PEF1 C-terminal 12 aa],0.70773 ± 2.5e-05,0.667 ± 0.01
PEMTRRGRGPRR [RPA49 C-terminal 12 aa],0.714 ± 0.022,0.673 ± 0.033
TLSKEPFLVFSF [YDL185C-A C-terminal 12 aa],0.499 ± 0.026,0.494 ± 0.025
TSPIGEFQSIKH [SPT21 C-terminal 12 aa],0.731 ± 0.015,0.674 ± 0.037
QSFETVFAGQKP [MET17 C-terminal 12 aa],0.7008 ± 0.0036,0.702 ± 0.027
GYIVGVAALLFL [ANS1 C-terminal 12 aa],0.428 ± 0.011,0.4532 ± 0.004
SHAALGNETNSL [YHR052C-B C-terminal 12 aa],0.6826 ± 0.0062,0.684 ± 0.034
TVVDARIDGRGK [PHB2 C-terminal 12 aa],0.6724 ± 0.0014,0.708 ± 0.045
HYEAVRANFEGA [PEX6 C-terminal 12 aa],0.7023 ± 0.0047,0.724 ± 0.012
ILILFTSINQRG [YOR366W C-terminal 12 aa],0.589 ± 0.037,0.605 ± 0.039
SSNEDKKGMCKL [IDP3 C-terminal 12 aa],0.736 ± 0.048,0.901 ± 0.037
